What was measured:
Assay in all cases: Kinase Profiling Assay
Assay type in all cases: biochemical
Conditions in all cases: 100 μM
Ret(h) = Ret(h) (Homo sapiens, UniProt P07949)
MAPKAP-K3(h) = MAPKAP-K3(h) (Homo sapiens, UniProt Q16644)
MST1(h) = biological target: T1, MST1(h) (Homo sapiens, UniProt Q13043)
T1 sequence (Q13043 1-487): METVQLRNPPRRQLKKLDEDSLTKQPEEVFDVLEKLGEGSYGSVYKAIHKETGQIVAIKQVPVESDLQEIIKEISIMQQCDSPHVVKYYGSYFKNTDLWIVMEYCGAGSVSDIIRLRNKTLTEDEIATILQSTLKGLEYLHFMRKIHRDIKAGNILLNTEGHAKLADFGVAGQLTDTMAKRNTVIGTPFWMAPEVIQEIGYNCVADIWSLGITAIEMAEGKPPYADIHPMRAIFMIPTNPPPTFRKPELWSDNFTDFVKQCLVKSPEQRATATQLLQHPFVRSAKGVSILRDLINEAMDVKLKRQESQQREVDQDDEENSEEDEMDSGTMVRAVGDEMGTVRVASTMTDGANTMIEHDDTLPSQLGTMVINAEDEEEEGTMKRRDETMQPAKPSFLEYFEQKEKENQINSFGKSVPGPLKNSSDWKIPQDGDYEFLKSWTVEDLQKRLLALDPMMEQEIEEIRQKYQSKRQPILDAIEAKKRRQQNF

MELK(h) = MELK(h) (Homo sapiens, UniProt Q14680)
MELK(h), sequence (Q14680 whole entry): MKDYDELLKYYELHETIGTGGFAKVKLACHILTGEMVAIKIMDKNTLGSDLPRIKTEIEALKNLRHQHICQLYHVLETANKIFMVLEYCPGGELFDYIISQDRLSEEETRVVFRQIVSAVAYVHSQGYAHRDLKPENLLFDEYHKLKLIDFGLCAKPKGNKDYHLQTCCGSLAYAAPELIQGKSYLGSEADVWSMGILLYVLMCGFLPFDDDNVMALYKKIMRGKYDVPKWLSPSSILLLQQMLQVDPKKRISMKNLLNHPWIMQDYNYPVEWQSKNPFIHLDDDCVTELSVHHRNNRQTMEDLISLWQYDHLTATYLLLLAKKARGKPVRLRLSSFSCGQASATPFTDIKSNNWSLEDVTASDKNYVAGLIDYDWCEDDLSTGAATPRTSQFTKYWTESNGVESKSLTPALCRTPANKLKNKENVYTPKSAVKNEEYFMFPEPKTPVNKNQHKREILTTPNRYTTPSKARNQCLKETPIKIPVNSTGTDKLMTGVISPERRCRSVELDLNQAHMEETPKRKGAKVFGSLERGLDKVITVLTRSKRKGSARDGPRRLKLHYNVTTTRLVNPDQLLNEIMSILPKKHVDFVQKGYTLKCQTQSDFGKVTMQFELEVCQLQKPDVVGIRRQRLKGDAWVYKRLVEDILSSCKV

PKCβII(h) = PKCβII(h) (Homo sapiens, UniProt P05771)
PKCβII(h), sequence (P05771 1-673 isoform P05771-2): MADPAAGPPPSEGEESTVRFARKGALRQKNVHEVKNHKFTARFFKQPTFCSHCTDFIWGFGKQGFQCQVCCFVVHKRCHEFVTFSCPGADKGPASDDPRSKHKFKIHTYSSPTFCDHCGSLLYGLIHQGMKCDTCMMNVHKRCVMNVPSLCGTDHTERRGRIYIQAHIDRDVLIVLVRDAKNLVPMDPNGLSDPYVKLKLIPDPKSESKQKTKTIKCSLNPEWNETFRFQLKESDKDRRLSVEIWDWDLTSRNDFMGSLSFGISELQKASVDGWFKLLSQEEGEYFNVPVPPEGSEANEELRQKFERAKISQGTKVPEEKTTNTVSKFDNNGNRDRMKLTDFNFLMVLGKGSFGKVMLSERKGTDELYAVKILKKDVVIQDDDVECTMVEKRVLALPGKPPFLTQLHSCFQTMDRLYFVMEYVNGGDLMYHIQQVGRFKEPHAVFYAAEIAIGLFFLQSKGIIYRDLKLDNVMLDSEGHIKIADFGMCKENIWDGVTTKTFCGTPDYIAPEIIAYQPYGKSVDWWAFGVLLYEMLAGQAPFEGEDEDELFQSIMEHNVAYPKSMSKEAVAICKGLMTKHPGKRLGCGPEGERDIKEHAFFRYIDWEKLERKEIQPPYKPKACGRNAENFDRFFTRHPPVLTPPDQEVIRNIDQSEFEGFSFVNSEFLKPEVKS

Met(D1246H)(h) = Met(D1246H)(h) (Homo sapiens, UniProt P08581, D1228H)
PKG1α(h) = biological target: T2, PKG1α(h) (Homo sapiens, UniProt Q13976)
T2 sequence (Q13976 1-671): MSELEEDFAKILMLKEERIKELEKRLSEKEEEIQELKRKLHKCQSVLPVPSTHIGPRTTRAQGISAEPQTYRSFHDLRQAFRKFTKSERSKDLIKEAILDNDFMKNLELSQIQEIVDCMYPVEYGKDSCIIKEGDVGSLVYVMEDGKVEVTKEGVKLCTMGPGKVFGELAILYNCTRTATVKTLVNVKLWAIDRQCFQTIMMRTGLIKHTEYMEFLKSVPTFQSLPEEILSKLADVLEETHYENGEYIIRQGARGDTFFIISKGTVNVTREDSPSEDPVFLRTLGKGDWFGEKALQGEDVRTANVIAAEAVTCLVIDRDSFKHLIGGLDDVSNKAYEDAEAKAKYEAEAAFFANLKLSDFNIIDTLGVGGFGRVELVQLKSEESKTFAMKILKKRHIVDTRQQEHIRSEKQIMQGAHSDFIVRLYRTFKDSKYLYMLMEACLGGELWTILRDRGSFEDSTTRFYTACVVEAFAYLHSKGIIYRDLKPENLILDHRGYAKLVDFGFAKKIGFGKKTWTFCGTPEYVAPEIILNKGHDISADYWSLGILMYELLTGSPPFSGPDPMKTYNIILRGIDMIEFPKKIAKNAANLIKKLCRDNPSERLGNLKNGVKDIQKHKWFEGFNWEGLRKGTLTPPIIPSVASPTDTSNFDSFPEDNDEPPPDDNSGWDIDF

PKBγ(h) = PKBγ(h) (Homo sapiens, UniProt Q9Y243)
PKBγ(h), sequence (Q9Y243 whole entry): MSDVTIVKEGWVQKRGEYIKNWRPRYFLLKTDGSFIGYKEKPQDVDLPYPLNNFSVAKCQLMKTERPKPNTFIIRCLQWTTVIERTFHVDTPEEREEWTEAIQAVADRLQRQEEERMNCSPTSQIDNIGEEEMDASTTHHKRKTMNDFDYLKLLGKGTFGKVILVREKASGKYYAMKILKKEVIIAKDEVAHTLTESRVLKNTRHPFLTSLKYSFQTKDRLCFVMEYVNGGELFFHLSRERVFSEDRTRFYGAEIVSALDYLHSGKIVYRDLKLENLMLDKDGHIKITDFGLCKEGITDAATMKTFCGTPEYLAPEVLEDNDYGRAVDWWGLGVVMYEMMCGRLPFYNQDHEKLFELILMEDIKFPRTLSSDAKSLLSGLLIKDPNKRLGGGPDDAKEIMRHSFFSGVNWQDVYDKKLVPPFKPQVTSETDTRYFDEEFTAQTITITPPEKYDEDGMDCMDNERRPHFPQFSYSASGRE

TAO3(h) = biological target: T3, TAO3(h) (Homo sapiens, UniProt Q9H2K8)
T3 sequence (Q9H2K8 1-898): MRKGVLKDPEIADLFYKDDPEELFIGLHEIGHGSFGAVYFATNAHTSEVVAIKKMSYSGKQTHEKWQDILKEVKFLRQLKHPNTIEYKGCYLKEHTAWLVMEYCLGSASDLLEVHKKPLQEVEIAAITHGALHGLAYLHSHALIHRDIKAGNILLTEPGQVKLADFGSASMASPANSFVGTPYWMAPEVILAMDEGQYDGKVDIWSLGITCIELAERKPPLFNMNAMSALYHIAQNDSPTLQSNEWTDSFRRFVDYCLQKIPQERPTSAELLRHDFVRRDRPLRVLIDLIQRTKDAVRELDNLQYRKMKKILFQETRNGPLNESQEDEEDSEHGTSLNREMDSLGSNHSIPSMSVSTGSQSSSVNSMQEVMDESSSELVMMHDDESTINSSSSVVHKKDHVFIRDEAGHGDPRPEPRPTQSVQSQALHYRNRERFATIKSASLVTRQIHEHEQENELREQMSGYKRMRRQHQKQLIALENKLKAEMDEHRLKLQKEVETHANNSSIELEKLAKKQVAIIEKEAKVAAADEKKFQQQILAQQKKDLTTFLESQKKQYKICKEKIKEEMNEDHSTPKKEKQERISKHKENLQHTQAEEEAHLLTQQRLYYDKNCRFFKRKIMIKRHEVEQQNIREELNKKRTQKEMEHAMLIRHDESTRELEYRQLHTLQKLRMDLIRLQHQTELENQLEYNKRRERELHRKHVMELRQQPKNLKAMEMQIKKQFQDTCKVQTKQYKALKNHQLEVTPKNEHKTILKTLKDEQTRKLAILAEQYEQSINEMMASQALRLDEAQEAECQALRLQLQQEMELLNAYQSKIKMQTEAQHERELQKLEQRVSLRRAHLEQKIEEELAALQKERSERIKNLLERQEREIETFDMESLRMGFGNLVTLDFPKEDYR

LIMK1(h) = LIMK1(h) (Homo sapiens, UniProt P53667)
LIMK1(h), sequence (P53667 whole entry): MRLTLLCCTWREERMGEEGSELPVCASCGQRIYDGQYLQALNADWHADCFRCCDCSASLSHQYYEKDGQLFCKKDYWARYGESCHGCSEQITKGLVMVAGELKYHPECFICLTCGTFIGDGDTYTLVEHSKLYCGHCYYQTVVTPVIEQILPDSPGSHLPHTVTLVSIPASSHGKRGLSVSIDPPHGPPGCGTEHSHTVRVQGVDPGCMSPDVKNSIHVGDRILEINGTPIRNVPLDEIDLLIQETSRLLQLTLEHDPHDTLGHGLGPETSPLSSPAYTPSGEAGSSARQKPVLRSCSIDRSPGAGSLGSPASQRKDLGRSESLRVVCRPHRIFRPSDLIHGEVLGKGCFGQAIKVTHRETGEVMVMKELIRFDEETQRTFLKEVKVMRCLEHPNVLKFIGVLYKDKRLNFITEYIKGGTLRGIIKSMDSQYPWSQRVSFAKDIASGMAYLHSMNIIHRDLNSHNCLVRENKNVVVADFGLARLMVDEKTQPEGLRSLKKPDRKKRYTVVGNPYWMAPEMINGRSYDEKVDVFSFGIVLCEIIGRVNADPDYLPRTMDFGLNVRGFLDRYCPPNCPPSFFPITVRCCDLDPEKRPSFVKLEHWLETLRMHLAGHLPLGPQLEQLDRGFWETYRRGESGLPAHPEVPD

HIPK1(h) = HIPK1(h) (Homo sapiens, UniProt Q86Z02)
HIPK1(h), sequence (Q86Z02 whole entry): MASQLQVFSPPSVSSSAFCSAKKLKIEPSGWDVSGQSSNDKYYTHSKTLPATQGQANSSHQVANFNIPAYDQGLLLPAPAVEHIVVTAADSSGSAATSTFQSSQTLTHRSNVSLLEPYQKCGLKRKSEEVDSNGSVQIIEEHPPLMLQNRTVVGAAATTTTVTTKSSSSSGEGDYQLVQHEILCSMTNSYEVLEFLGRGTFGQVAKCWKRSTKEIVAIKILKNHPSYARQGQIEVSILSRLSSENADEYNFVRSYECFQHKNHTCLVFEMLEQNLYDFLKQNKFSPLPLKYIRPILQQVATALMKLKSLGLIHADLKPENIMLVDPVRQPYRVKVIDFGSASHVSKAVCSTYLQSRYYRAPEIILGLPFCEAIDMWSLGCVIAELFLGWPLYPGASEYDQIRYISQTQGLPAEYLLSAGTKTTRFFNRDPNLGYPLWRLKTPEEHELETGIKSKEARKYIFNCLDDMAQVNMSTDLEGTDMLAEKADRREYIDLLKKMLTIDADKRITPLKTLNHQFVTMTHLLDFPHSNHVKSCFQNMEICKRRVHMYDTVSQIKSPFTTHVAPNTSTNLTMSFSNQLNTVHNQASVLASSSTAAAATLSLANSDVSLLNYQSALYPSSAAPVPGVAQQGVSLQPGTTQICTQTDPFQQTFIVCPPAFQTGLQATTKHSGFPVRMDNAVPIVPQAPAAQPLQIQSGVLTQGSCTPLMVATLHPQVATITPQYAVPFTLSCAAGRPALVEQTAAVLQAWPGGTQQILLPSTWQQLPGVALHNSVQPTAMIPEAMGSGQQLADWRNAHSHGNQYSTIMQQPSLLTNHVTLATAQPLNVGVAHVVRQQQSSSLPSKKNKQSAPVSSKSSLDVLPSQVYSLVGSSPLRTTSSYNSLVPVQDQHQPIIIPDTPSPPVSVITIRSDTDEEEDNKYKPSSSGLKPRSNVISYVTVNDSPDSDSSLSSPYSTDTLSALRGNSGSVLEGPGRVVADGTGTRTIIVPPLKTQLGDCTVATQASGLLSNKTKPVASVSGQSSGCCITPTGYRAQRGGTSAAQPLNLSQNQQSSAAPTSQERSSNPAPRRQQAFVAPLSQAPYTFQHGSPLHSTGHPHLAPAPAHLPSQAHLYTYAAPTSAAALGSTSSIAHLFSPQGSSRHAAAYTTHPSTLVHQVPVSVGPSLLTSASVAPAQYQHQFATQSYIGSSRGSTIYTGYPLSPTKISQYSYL

Abl (Q252H) (h) = Abl (Q252H) (h) (Homo sapiens, UniProt P00519, Q252H)
SAPK2a(h) = SAPK2a(h) (Homo sapiens, UniProt Q16539)
SAPK2a(h), sequence (Q16539 whole entry): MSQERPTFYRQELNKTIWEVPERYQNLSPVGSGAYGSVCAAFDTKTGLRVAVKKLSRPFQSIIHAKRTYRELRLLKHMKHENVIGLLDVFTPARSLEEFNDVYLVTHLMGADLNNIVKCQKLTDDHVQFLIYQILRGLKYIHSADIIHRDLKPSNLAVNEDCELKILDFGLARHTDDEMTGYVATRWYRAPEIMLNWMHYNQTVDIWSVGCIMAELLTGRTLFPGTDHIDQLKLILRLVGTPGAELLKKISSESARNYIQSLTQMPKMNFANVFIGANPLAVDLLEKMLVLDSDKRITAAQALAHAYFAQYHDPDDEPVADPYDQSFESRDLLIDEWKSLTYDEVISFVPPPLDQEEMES

MAPKAP-K3(h), sequence (Q16644 whole entry): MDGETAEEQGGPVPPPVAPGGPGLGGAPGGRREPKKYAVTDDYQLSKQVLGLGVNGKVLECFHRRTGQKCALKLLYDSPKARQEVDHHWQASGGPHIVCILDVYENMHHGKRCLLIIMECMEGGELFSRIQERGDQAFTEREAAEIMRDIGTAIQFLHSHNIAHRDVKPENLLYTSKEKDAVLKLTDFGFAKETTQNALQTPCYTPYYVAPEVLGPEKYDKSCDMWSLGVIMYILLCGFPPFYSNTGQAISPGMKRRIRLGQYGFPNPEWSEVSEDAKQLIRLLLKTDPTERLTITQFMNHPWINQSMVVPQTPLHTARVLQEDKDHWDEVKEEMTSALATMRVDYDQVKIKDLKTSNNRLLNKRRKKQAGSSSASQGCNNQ

Sequence | % activity (Ret(h)) | % activity (MAPKAP-K3(h)) | % activity (MST1(h)) | % activity (MELK(h)) | % activity (PKCβII(h)) | % activity (Met(D1246H)(h)) | % activity (PKG1α(h)) | % activity (PKBγ(h)) | % activity (TAO3(h)) | % activity (LIMK1(h)) | % activity (HIPK1(h)) | % activity (Abl (Q252H) (h)) | % activity (SAPK2a(h))
YARAAARQARAKALNRQLGVA [MMI-0200] | 96% | 39% | 72% | 59% | 100% | 139% | 70% | – | – | – | – | – | –
FAKLAARLYRKALARQLGVAA [MMI-0300] | 140% | 3% | 14% | 16% | 82% | 125% | 64% | 20% | 77% | 88% | 74% | 82% | 90%
KAFAKLAARLYRKALARQLGVAA [MMI-0400] | 145% | 7% | 6% | 17% | 75% | 68% | 58% | 41% | 67% | 92% | 91% | 98% | 85%
HRRIKAWLKKIKALARQLGVAA [MMI-0500] | 174% | 9% | 3% | 0% | 3% | 150% | 25% | 20% | 12% | 87% | 47% | 40% | 52%
